Target: Jak2 (UniProt O60674)
Assay: phosphorylation enrichment, bacterial display (enrichment ratio); higher = better substrate or ligand; peptides without Tyr show the background
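Further: 11-residue human phosphosite peptides and single-mutation variants displayed on the E. coli surface, counted by deep sequencing, each peptide's frequency after selection divided by its frequency in the unselected input library; frequency after pTyr selection over input frequency; kinase dosed for 20-30% of maximal phosphorylation in three min.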

Jak2, sequence (O60674 whole entry, looked up): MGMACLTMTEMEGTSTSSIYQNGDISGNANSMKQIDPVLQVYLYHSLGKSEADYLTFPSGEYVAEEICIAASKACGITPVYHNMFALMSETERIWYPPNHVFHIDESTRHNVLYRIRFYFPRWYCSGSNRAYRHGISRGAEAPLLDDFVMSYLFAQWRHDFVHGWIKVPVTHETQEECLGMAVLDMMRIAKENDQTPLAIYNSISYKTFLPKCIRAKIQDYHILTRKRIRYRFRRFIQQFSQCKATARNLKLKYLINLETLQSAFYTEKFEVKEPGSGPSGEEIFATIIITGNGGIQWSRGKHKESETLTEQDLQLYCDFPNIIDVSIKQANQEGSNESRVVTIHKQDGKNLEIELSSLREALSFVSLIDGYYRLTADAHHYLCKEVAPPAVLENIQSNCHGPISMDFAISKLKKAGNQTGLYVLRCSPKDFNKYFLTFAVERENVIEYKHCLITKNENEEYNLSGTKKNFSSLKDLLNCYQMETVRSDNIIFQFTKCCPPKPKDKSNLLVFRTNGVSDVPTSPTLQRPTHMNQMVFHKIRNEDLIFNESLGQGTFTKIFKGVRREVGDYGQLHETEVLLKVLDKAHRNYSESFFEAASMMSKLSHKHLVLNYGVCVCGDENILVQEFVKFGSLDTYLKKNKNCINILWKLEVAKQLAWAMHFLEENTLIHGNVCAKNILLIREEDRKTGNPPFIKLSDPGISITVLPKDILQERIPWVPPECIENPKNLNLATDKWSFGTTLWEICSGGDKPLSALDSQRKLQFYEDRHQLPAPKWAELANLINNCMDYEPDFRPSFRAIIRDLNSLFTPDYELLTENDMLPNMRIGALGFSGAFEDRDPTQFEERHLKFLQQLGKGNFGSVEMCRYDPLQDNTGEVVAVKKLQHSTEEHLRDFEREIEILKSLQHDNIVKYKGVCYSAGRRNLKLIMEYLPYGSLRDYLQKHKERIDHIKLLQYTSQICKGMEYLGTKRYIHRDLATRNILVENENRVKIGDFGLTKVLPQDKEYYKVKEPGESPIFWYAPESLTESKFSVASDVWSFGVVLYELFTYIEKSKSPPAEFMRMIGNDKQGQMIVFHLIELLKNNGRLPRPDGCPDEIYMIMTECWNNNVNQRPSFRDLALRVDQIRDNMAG

Compared with SIKDKYLTALY [KCNH2_Y611_V612L], AAGGRYYGLVG [HARS1_Y363_D364Y] is lower in phosphorylation enrichment: 0.624 for the first, 0.49 for the second.

Going from SQKRKYIEIDS [SDAD1_Y580] to CTTIHSNYMCN [TP53_Y234_Y234S], the phosphorylation enrichment falls from 0.701 to 0.608.

Compared with LEHCQYVTEKV [ALDOB_Y204], SVTCTYSSALN [TP53_Y126_P128S] is lower in phosphorylation enrichment: 1.68 for the first, 0.909 for the second.

Compared with ADARMYGDLPW [PLP1_Y207_V209D], SSFDIYHLSRE [KIR3DL2_Y253_YF] is higher in phosphorylation enrichment: 0.71 for the first, 0.817 for the second.

Compared with TLNVRHESVQA [CEACAM7_Y236_Y236H], VDEVLYEDSST [MTHFS_Y197] is higher in phosphorylation enrichment: 0.831 for the first, 1.18 for the second.

Going from DDLTDYLMKIL [ACTA1_Y190_R185D] to TTGLIYIGSHD [AASDH_Y870], the phosphorylation enrichment falls from 1.15 to 0.715.

Compared with RPQDGFRIVQH [PTPRT_Y1329_Y1329F], EFNLMYDGTKE [IRF6_Y97] is higher in phosphorylation enrichment: 0.561 for the first, 1.03 for the second.

Compared with GQDLLYEDEDL [PACS1_Y303_F302L], YAFQLYDLDPD [CHP2_Y123_R127P] is higher in phosphorylation enrichment: 1.18 for the first, 1.32 for the second.

Going from KKKKQYKDKYL [CASK_Y708] to QRRFVYFFSFL [PTEN_Y176_YF], the phosphorylation enrichment rises from 0.475 to 1.15.

Going from HNELFYEEAEH [VANGL1_Y345_YF] to DLGIQYKVLKP [CTNNA1_Y177_A179V], the phosphorylation enrichment rises from 0.981 to 1.12.

Going from SSKILYHIIKG [CDH17_Y489] to LYSDHYSPSGR [TMPRSS12_Y23], the phosphorylation enrichment rises from 0.63 to 1.41.

First: RLQEDYDHSYY [ESD_Y258_G257D]
Second: CNRADYSKLAP [GNE_Y22]
The phosphorylation enrichment of the first is higher: 1.56 for the first, 0.621 for the second.

Compared with IALSKYGRVKW [FGF6_Y186_R191W], LNPLVYTLRNA [OR4C12_Y285_V283L] is higher in phosphorylation enrichment: 0.56 for the first, 1.1 for the second.

Going from LSDGPYSSPFE [EPOR_Y485_N487S_YF] to CTTFHYNFMCN [TP53_Y234_I232F_YF], the phosphorylation enrichment rises from 0.765 to 0.866.

First: VKKKLDEEIDQ [CYP17A1_Y329_Y329D]
Second: HICTAYELVLA [DHCR24_Y190]
The phosphorylation enrichment of the first is lower: 0.782 for the first, 1.6 for the second.

First: TVFENYVADIK [RHOA_Y42_E47K]
Second: GKLIFYDLRGE [KARS1_Y145]
The phosphorylation enrichment of the first is higher: 0.889 for the first, 0.823 for the second.

Sequence RFLERYIYNPE [HLA-DPB1_Y57_R61P] has a phosphorylation enrichment of 0.935.

Tested on: AncSZ
Assay: as above

Going from SIKDKYLTALY [KCNH2_Y611_V612L] to AAGGRYYGLVG [HARS1_Y363_D364Y], the phosphorylation enrichment falls from 0.727 to 0.56.

First: SQKRKYIEIDS [SDAD1_Y580]
Second: CTTIHSNYMCN [TP53_Y234_Y234S]
The phosphorylation enrichment of the first is lower: 0.818 for the first, 0.853 for the second.

Compared with LEHCQYVTEKV [ALDOB_Y204], SVTCTYSSALN [TP53_Y126_P128S] is lower in phosphorylation enrichment: 1.83 for the first, 1 for the second.

Compared with ADARMYGDLPW [PLP1_Y207_V209D], SSFDIYHLSRE [KIR3DL2_Y253_YF] is higher in phosphorylation enrichment: 0.766 for the first, 1.12 for the second.

First: TLNVRHESVQA [CEACAM7_Y236_Y236H]
Second: VDEVLYEDSST [MTHFS_Y197]
The phosphorylation enrichment of the first is lower: 0.564 for the first, 1.53 for the second.

Going from DDLTDYLMKIL [ACTA1_Y190_R185D] to TTGLIYIGSHD [AASDH_Y870], the phosphorylation enrichment falls from 1.22 to 0.726.

First: RPQDGFRIVQH [PTPRT_Y1329_Y1329F]
Second: EFNLMYDGTKE [IRF6_Y97]
The phosphorylation enrichment of the first is lower: 0.769 for the first, 0.993 for the second.

Going from GQDLLYEDEDL [PACS1_Y303_F302L] to YAFQLYDLDPD [CHP2_Y123_R127P], the phosphorylation enrichment rises from 1.6 to 1.66.

Going from KKKKQYKDKYL [CASK_Y708] to QRRFVYFFSFL [PTEN_Y176_YF], the phosphorylation enrichment rises from 0.614 to 1.6.

Compared with HNELFYEEAEH [VANGL1_Y345_YF], DLGIQYKVLKP [CTNNA1_Y177_A179V] is lower in phosphorylation enrichment: 1.89 for the first, 1.1 for the second.

Going from SSKILYHIIKG [CDH17_Y489] to LYSDHYSPSGR [TMPRSS12_Y23], the phosphorylation enrichment rises from 0.565 to 1.27.

Going from RLQEDYDHSYY [ESD_Y258_G257D] to CNRADYSKLAP [GNE_Y22], the phosphorylation enrichment falls from 1.78 to 0.749.

Going from IALSKYGRVKW [FGF6_Y186_R191W] to LNPLVYTLRNA [OR4C12_Y285_V283L], the phosphorylation enrichment rises from 0.603 to 1.05.

Compared with LSDGPYSSPFE [EPOR_Y485_N487S_YF], CTTFHYNFMCN [TP53_Y234_I232F_YF] is lower in phosphorylation enrichment: 1.37 for the first, 0.923 for the second.

First: VKKKLDEEIDQ [CYP17A1_Y329_Y329D]
Second: HICTAYELVLA [DHCR24_Y190]
The phosphorylation enrichment of the first is lower: 0.839 for the first, 1.8 for the second.

Going from TVFENYVADIK [RHOA_Y42_E47K] to GKLIFYDLRGE [KARS1_Y145], the phosphorylation enrichment rises from 0.922 to 1.02.

Work on RFLERYIYNPE [HLA-DPB1_Y57_R61P] yielded a phosphorylation enrichment of 1.1.

Tested on: c-Abl (mouse)
Assay: as above

First: SIKDKYLTALY [KCNH2_Y611_V612L]
Second: AAGGRYYGLVG [HARS1_Y363_D364Y]
The phosphorylation enrichment of the first is lower: 0.487 for the first, 0.671 for the second.

Going from SQKRKYIEIDS [SDAD1_Y580] to CTTIHSNYMCN [TP53_Y234_Y234S], the phosphorylation enrichment falls from 0.613 to 0.576.

Compared with LEHCQYVTEKV [ALDOB_Y204], SVTCTYSSALN [TP53_Y126_P128S] is lower in phosphorylation enrichment: 1.18 for the first, 0.728 for the second.

Going from ADARMYGDLPW [PLP1_Y207_V209D] to SSFDIYHLSRE [KIR3DL2_Y253_YF], the phosphorylation enrichment rises from 0.586 to 0.807.

First: TLNVRHESVQA [CEACAM7_Y236_Y236H]
Second: VDEVLYEDSST [MTHFS_Y197]
The phosphorylation enrichment of the first is lower: 0.415 for the first, 0.785 for the second.

First: DDLTDYLMKIL [ACTA1_Y190_R185D]
Second: TTGLIYIGSHD [AASDH_Y870]
The phosphorylation enrichment of the first is higher: 0.758 for the first, 0.488 for the second.

First: RPQDGFRIVQH [PTPRT_Y1329_Y1329F]
Second: EFNLMYDGTKE [IRF6_Y97]
The phosphorylation enrichment of the first is higher: 0.836 for the first, 0.705 for the second.

Compared with GQDLLYEDEDL [PACS1_Y303_F302L], YAFQLYDLDPD [CHP2_Y123_R127P] is lower in phosphorylation enrichment: 0.855 for the first, 0.78 for the second.

Going from KKKKQYKDKYL [CASK_Y708] to QRRFVYFFSFL [PTEN_Y176_YF], the phosphorylation enrichment rises from 0.837 to 1.12.

First: HNELFYEEAEH [VANGL1_Y345_YF]
Second: DLGIQYKVLKP [CTNNA1_Y177_A179V]
The phosphorylation enrichment of the first is lower: 0.727 for the first, 0.759 for the second.

First: SSKILYHIIKG [CDH17_Y489]
Second: LYSDHYSPSGR [TMPRSS12_Y23]
The phosphorylation enrichment of the first is lower: 0.438 for the first, 1.54 for the second.

First: RLQEDYDHSYY [ESD_Y258_G257D]
Second: CNRADYSKLAP [GNE_Y22]
The phosphorylation enrichment of the first is higher: 0.943 for the first, 0.556 for the second.

Going from IALSKYGRVKW [FGF6_Y186_R191W] to LNPLVYTLRNA [OR4C12_Y285_V283L], the phosphorylation enrichment rises from 0.748 to 1.19.

Going from LSDGPYSSPFE [EPOR_Y485_N487S_YF] to CTTFHYNFMCN [TP53_Y234_I232F_YF], the phosphorylation enrichment rises from 0.468 to 0.641.

Compared with VKKKLDEEIDQ [CYP17A1_Y329_Y329D], HICTAYELVLA [DHCR24_Y190] is higher in phosphorylation enrichment: 0.693 for the first, 1.13 for the second.

Compared with TVFENYVADIK [RHOA_Y42_E47K], GKLIFYDLRGE [KARS1_Y145] is lower in phosphorylation enrichment: 0.699 for the first, 0.664 for the second.

For RFLERYIYNPE [HLA-DPB1_Y57_R61P], the phosphorylation enrichment was 0.68.

Target: Fyn (UniProt P06241)
Sequence (P06241 whole entry, looked up): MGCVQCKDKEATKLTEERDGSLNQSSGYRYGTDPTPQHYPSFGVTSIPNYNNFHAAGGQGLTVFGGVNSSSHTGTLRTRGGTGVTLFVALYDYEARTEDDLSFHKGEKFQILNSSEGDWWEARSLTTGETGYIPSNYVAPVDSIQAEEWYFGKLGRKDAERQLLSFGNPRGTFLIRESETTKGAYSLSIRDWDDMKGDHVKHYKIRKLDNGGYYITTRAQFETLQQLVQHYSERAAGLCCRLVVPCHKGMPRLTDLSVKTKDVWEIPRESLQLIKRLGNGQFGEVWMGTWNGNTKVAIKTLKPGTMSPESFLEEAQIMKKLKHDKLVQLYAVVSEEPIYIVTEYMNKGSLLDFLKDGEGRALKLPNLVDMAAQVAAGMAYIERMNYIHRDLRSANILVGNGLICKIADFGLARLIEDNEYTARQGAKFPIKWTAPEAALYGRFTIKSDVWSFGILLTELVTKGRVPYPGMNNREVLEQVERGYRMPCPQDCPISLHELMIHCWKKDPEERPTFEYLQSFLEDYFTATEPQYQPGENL
Assay: as above

Going from SIKDKYLTALY [KCNH2_Y611_V612L] to AAGGRYYGLVG [HARS1_Y363_D364Y], the phosphorylation enrichment rises from 0.56 to 0.618.

Going from SQKRKYIEIDS [SDAD1_Y580] to CTTIHSNYMCN [TP53_Y234_Y234S], the phosphorylation enrichment rises from 0.451 to 0.478.

Compared with LEHCQYVTEKV [ALDOB_Y204], SVTCTYSSALN [TP53_Y126_P128S] is lower in phosphorylation enrichment: 1.59 for the first, 0.6 for the second.

Going from ADARMYGDLPW [PLP1_Y207_V209D] to SSFDIYHLSRE [KIR3DL2_Y253_YF], the phosphorylation enrichment rises from 3.54 to 12.1.

Compared with TLNVRHESVQA [CEACAM7_Y236_Y236H], VDEVLYEDSST [MTHFS_Y197] is higher in phosphorylation enrichment: 0.378 for the first, 0.571 for the second.

Compared with DDLTDYLMKIL [ACTA1_Y190_R185D], TTGLIYIGSHD [AASDH_Y870] is lower in phosphorylation enrichment: 0.444 for the first, 0.375 for the second.

Going from RPQDGFRIVQH [PTPRT_Y1329_Y1329F] to EFNLMYDGTKE [IRF6_Y97], the phosphorylation enrichment falls from 0.597 to 0.536.

First: GQDLLYEDEDL [PACS1_Y303_F302L]
Second: YAFQLYDLDPD [CHP2_Y123_R127P]
The phosphorylation enrichment of the first is lower: 0.674 for the first, 4.7 for the second.

Going from KKKKQYKDKYL [CASK_Y708] to QRRFVYFFSFL [PTEN_Y176_YF], the phosphorylation enrichment rises from 0.454 to 0.656.

Compared with HNELFYEEAEH [VANGL1_Y345_YF], DLGIQYKVLKP [CTNNA1_Y177_A179V] is lower in phosphorylation enrichment: 0.942 for the first, 0.46 for the second.

First: SSKILYHIIKG [CDH17_Y489]
Second: LYSDHYSPSGR [TMPRSS12_Y23]
The phosphorylation enrichment of the first is lower: 0.45 for the first, 1.01 for the second.

First: RLQEDYDHSYY [ESD_Y258_G257D]
Second: CNRADYSKLAP [GNE_Y22]
The phosphorylation enrichment of the first is higher: 0.824 for the first, 0.458 for the second.

Compared with IALSKYGRVKW [FGF6_Y186_R191W], LNPLVYTLRNA [OR4C12_Y285_V283L] is higher in phosphorylation enrichment: 0.306 for the first, 2.22 for the second.

Compared with LSDGPYSSPFE [EPOR_Y485_N487S_YF], CTTFHYNFMCN [TP53_Y234_I232F_YF] is lower in phosphorylation enrichment: 0.786 for the first, 0.501 for the second.

First: VKKKLDEEIDQ [CYP17A1_Y329_Y329D]
Second: HICTAYELVLA [DHCR24_Y190]
The phosphorylation enrichment of the first is lower: 0.483 for the first, 0.598 for the second.

Going from TVFENYVADIK [RHOA_Y42_E47K] to GKLIFYDLRGE [KARS1_Y145], the phosphorylation enrichment falls from 0.534 to 0.474.

With RFLERYIYNPE [HLA-DPB1_Y57_R61P] the phosphorylation enrichment was 1.75.

Reference: the supplement of paper PMC10065799, “High-throughput profiling of sequence recognition by tyrosine kinases and SH2 domains using bacterial peptide display” (eLife, 2023)
